Laboratory results as given in article PMC10334784.

Biological target: HCoV-OC43 nucleocapsid (N) protein, 2X-StrepTag tagged (HCoV-OC43) (UniProt P33469)
Assay: BLI

Sequence of HCoV-OC43 nucleocapsid (N) protein, 2X-StrepTag tagged (HCoV-OC43) (P33469 whole entry): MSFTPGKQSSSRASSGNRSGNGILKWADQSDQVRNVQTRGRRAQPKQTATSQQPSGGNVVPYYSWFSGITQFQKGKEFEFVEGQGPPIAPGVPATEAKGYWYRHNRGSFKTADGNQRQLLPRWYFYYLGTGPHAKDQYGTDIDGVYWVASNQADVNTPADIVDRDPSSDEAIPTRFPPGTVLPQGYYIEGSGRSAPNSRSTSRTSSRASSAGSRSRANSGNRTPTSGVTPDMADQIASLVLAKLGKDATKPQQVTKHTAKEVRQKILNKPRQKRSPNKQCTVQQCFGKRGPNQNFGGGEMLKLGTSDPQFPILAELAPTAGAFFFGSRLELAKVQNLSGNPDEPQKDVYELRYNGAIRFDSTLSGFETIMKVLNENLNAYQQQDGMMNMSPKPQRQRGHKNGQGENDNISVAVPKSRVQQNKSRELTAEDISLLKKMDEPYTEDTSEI

Substance: CXCL4 (ligand)
- Kd: 170 nM
- koff: 0.00088 s⁻¹
- kon: 5300 M⁻¹ s⁻¹
